The data set is described as follows: yeast display, Sf9 membrane polyspecificity reagent, FACS + sequencing; frameworks hold sequencing errors. A digest of the protocol: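 Galactose-induced (36–48 hours) yeast carrying a synthetic nanobody display library were exposed to 10% biotinylated, detergent-solubilized Sf9 membrane reagent at 4 °C for 1 hour. FACS followed streptavidin microbead enrichment, using low and high (top ~1%) gates for expression (anti-HA) and reagent binding (streptavidin). Colony PCR, MiSeq 2 × 250 sequencing and CDR-length filtering followed. Labels for polyreactivity reflect the gate of origin.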
For the sequence “QVQLVESGGGLVQAGGSLRLSCAASGRIFRLYALGWDRQAPGKERELVATITSGGTYYADSVKGRFTISRDNAKNTVYLQMNSLKPEDTAVYYCAAHSGSTYKYWGQGTQVTVSS”, the “polyreactivity (PSR sort gate)” value is “low polyreactivity”. The value for “QVQLVESGGGLVQAGGSLRLSCAASGRIFRLYAMGWYRQAPGKEREFVATITWIGGRTYYADSVKGRFTISRDNAKNTVYLQMNSLKPEDTAVYYCAADPGYTYEYWGQGTQVTVSS” was “low polyreactivity”; that for “QVQLVESGGGLVQAGGSLRLSCAASGRIFRLYAMGWYRQAPGKERELVAAISKSGGSTYYADSVKGRFTISRDNAKYTVYLQMNSLNPEDTAVYYCAADYRTHGGYVGTFDYWGQGTQVTVSS” was “low polyreactivity”; that for “QVQLVESGGGLVQAGGSLRLSCAASGRIFRLYVMGWYRQAPGKERELVARIRIRDSNTYYADSVKGRFTISRDNAKHTVYLQMNSLKPEDTAVYYCAVVATYVYSKYDYWGQGTQVTVSS” was “low polyreactivity”. With “QVQLVESGGGLVQAGGSLRLSCAASGRIFRNAMGWYRQAPGKERELVAAISSGGSTNYADSVKGRFTISRDNAKNTVYLQMNSLKPEDTAVYYCAADWDWWYQEFDYWGQGTQVTVSS”, the “polyreactivity (PSR sort gate)” value is on record as “high polyreactivity”. The same measure for “QVQLVESGGGLVQAGGSLRLSCAASGRIFRNNAMGWYRQAPGKERELVAAITWSGGSTYYADSVKGRFTISRDNAKNTVYLQMNSLKPEDTAVYYCNAGRGYKYSYTYDYWGQGTQVTVSS”: “low polyreactivity”; for “QVQLVESGGGLVQAGGSLRLSCAASGRIFRNYAMGWYRQAPGKERELVAAISSGGGSTYYADSVKGRFTISRDNAKNTVYLQMNSLKPEDTAVYYCNARYVYYGKFREYDYWGQGTQVTVSS”: “high polyreactivity”; for “QVQLVESGGGLVQAGGSLRLSCAASGRIFRNYAMGWYRQAPGKERELVAAISTRSGSTYYADSVKGRFTISRDNAKNTVYLQMNSLKPEDTAVYYCNKVSVGRYYALYYWGQGTKVTVSS”: “high polyreactivity”. The same measure for “QVQLVESGGGLVQAGGSLRLSCAASGRIFRNYGMGWYRQAPGKERELVATITWTGGSTFYADSVKGRFTISRDNAKNTVYLQMNSLKPEDTAVYYCAAEWHRLIYFSPRYDFDYWGQGTQVTVSS”: “low polyreactivity”; for “QVQLVESGGGLVQAGGSLRLSCAASGRIFRPNAMGWYRPAPGKERELVAAISYSGATTYYADSVKGRFTISRDNAKNTVYLQMNSLKPEVTAVYYCAAGGTSGQEFGYWGQGTQVTVSS”: “low polyreactivity”. The same measure for “QVQLVESGGGLVQAGGSLRLSCAASGRIFRRNAMGWYRQAPGKERELVAGIDSSGGSTYYADSVKGRFTISRDNAKNSVYLQMNSLKPEDTAVYYCNAVGYSQGYDYWGQGTQVTVSS”: “high polyreactivity”. For “QVQLVESGGGLVQAGGSLRLSCAASGRIFRRYAMGWYRQAPGKEREFVAAISTSGGSTYYADSVKGRFTISRDNAKNTVYLQMNSLKPEDTAVYYCAKRFIYGRYNYWGQGTQVTVSS”, the “polyreactivity (PSR sort gate)” value was “high polyreactivity”.

Regarding “QVQLVESGGGLVQAGGSLRLSCAASGRIFRRYAMGWYRQAPGKERELVAAISSRGGRTYYADSVKGRFTISRDNAKNTVYLQMNSLKPEETAVYYCNARSFRWCRWLRLPFNYWGQGTQVTVSS”, the “polyreactivity (PSR sort gate)” value is recorded as “high polyreactivity”.

“QVQLVESGGGLVQAGGSLRLSCAASGRIFRRYAMGWYRQAPGKERELVAAISVTGGRTYYADSVKGRFTISRDNAKNTVYLQMNSLKPEDTAVYYCNTLQYQERYAYDYWGQGTQVTVSS”: the “polyreactivity (PSR sort gate)” value is “high polyreactivity”.

As for “QVQLVESGGGLVQAGGSLRLSCAASGRIFRRYAMGWYRQAPGKERELVASISSGGSTNYADSVKGRFTISRDNAKNTVYLQMNSLKPEDTAVYYCAAAYPWQTRYSSPYYYWGQGTQVTVSS”, the “polyreactivity (PSR sort gate)” value was “high polyreactivity”. The same measure for “QVQLVESGGGLVQAGGSLRLSCAASGRIFRSIAMGWYRQSPGKERELVAVINSDDSTYYADSVKGRFTISRDNAKNTVYLQMNSLKPEDTAVYYCAAEPQYTRHMDSWGQGTQVTVSS”: “low polyreactivity”; for “QVQLVESGGGLVQAGGSLRLSCAASGRIFRSNAMGWYRQAPGKERELVATITRSGGSTYYADSVKGRFTISRDNAKNTVYLQMNSLKPEDTAVYYCNAVFGSAYRAQRIMGYWGQGTQVTVSS”: “high polyreactivity”. The value for “QVQLVESGGGLVQAGGSLRLSCAASGRIFRSNAMGWYRQSPGKESELVAAITWRGRTYYADSVKGRFTISRDNAKNTVYLQMNSLKPEDTAVYYCNAYVRYGYDYWGHGTQVTVSS” was “high polyreactivity”; that for “QVQLVESGGGLVQAGGSLRLSCAASGRIFRSYVMGWYRQAPGKERELVAVISKNGGTTYYADSVKGRFTISRDNAKNTVYFQRNSLKPEDTAVYYCAARRLGYYRKVKELDYWGQGTQVTVSS” was “high polyreactivity”. The value for “QVQLVESGGGLVQAGGSLRLSCAASGRIFRTNAMGWYRQAPGKEREFVAAISKDGGRTYYADSVKGRFTISRDNAKNTVYLQMNSLKPEDTAVYYCNVLVKHSTTTYSTYDYWGQGTQVTVSS” was “high polyreactivity”. On to “QVQLVESGGGLVQAGGSLRLSCAASGRIFRTYAMGWYRQAPGKERELVAAITWSGGSTYYADSVKGRFTISRDNAKNTVYLQMNSLKPEDTAVYYCNALTPGYRIYDYWGQGTQVTVSS”, for which the “polyreactivity (PSR sort gate)” value is “high polyreactivity”. The same measure for “QVQLVESGGGLVQAGGSLRLSCAASGRIFRTYAMGWYRQAPGKERELVAGITWRGTSTYYADYVKGRFTISRDNAKNTVYLQLNSLKPEDTAVYYCAAEWKGYYVHDYWGQGTQVTVSS”: “high polyreactivity”; for “QVQLVESGGGLVQAGGSLRLSCAASGRIFRVYAMGWYRQAPGKERELVAAIRWTGGSTYYADSVKGRFKISRDNAKNTVYLQMNSLKPEDTAVYYCAAGRYYSDGSRTIYDYWGQGTQVTVSS”: “low polyreactivity”.

Consider “QVQLVESGGGLVQAGGSLRLSCAASGRIFRVYTMGWYIQAPGKERELVAAISRGGTTTYADSVKGRFTISRDNAKNTVYLQMNSLKPEYTAVYYCNARGWFRGEFDYWGQGTQVTVSS”, for which the “polyreactivity (PSR sort gate)” value is “high polyreactivity”. The value for “QVQLVESGGGLVQAGGSLRLSCAASGRIFRWYAMGWYRQAPGKERELVASISSGGSTNYADSVKGRFTISRDNAKNTVYLQLNSLKPEDTAVYYCAADFATPGPAYDYWGEGTQVTVSS” was “low polyreactivity”. The value for “QVQLVESGGGLVQAGGSLRLSCAASGRIFRWYAMGWYRQAPGKERELVASITWNGGSTYYADSVKGRFTISRDNAKNTVYLQMNSLKPEDTAVYYCAVAFYRGPEMGYWGQGTQVTVSS” was “high polyreactivity”; that for “QVQLVESGGGLVQAGGSLRLSCAASGRIFRWYAMGWYRQAPGKERELVATITRSGGSTYCADSVKGRFTISRDNAKNTVYLQMNSLKPEDTAVYYCAARWRLTPSWLPYVQSSAGYDYWGQGTQVTVSS” was “high polyreactivity”. The same measure for “QVQLVESGGGLVQAGGSLRLSCAASGRIFRWYPMGWYRQAPGKESELDATISSTGGSTYYADSVKGRFTISRDNAKNTVYIQMNSLKPEVTAVYYCNAVVYGIFLYAWYDYWGQGTQVTVSS”: “low polyreactivity”. For “QVQLVESGGGLVQAGGSLRLSCAASGRIFRWYTMGWYRQAPGKEREFVAAITWSDTSTSYADSVKGPFTISRDNAKNTVYLQMNSLKPEDTAVYYCAAPTHLHGHGNQNEFYYWGQGTQVTVSS”, the “polyreactivity (PSR sort gate)” value is reported as “low polyreactivity”. The value for “QVQLVESGGGLVQAGGSLRLSCAASGRIFRYNAMGWYRQAPGKERELVAAISQSGGSTYYADSVKGRFTISRDNAMNTVYLQMNSLKPEDTAVYYCGADNYFLGDEDYWGQGTQGTVSS” was “high polyreactivity”.

Values taken from the nanobody polyreactivity screen of Harvey et al. (2022).
